From US20240294624A1, “ANTI-ERYTHROPOIETIN ANTIBODY” (ANDREMACON S.R.L., priority 2021, published 2024) come the findings set out here.

Data set [1] is described as follows: Plasma pharmacokinetics by SPR after single i.v. injection. In kind it is in vivo. The following applies: mice with glioblastoma xenograft, single i.v. 10 mg/kg. The protocol:
The ligands hEPO and BSA (Sigma-Aldrich, Italy, used as reference) were immobilized using amine-coupling chemistry on parallel channels of a CMD700L (Xantec GmbH) sensor chip. Briefly, surface was activated with sulfo NHS/EDC according to manufacturer's recommendation; hEPO and BSA were diluted at a concentration of 400 and 30 μg/mL in acetate buffer, pH 4.0 and 4.5, respectively. These solutions were flowed for 5 min at a rate of 30 μL/min over the activated chip surface. The remaining activated groups were blocked with ethanolamine, pH 8.0.
The analyte solutions (e.g. control plasma containing spiked anti-EPO (C4) antibody, or plasma/tissue samples from treated mice) were injected so that they flowed simultaneously on both immobilized hEPO and the reference surface. Dissociation was measured in the following 10 minutes. All of these assays were carried out at 25° C. […]
This method can thus allow to determine the plasma and tissue concentrations of antibody, on the basis of an appropriate calibration curve (FIG. 26A). The Lower Limit of Detection calculated was ˜0.5 μg/mL (˜3.3 nM), which corresponding to a LLD of 5 μg/mL in undiluted plasma.
The pharmacokinetic (PK) profile of anti-EPO (C4) was assessed after single i.v. injection in mice models for glioblastoma. In particular, the antibody concentrations were measured at different time points after treatment (from 6 hours to 1 week) in: […]
For orientation: SPR reads the build-up and loss of mass on a sensor chip optically.

Data set [2] is described as follows: Tissue distribution by SPR (tumor, liver, kidney). The format is in vivo, mice. The protocol:
Tumor tissues were analyzed after their homogenization in TBST (1 g/2 mL) with an Precellys ysing Kit tubes, ultracentrifugation for 1 h at 110000 g and 1:2 dilution of the supernatant into optimized TBST buffer.
The pharmacokinetic (PK) profile of anti-EPO (C4) was assessed after single i.v. injection in mice models for glioblastoma. In particular, the antibody concentrations were measured at different time points after treatment (from 6 hours to 1 week) in:
1) plasma, to determine the main PK parameters (mainly half-time of elimination and volume of distribution); 2) tumor, to assess the antibody presence in the target tissue; 3) in kidney and liver to evaluate the elimination route.
When tumor masses reached about 500 mg, animals were treated i.v. with 10 mg/kg of anti-EPO (C4) antibody. Blood samples were collected from the retroorbital plexus under isoflurane anesthesia at 4, 24, 48, 72, 120, and 168 h from treatment (FIG. 26B). Mice were sacrificed by cervical dislocation. Tumors were collected. To obtain plasma, blood samples were centrifuged at 4000 rpm for 10 min at 4° C. All samples were immediately frozen in dry ice and then stored at −20° C. until analysis. Four mice were used at each time point.

B1: anti-EPO (C4): isolated anti-Erythropoietin monoclonal antibody, VL SEQ ID NO:6, VH SEQ ID NO:14, hybridoma DSM ACC 3370 (antibody, listed as Homo sapiens, V domains shown)
VH: EVKLQESGGGLVQPGGSLKLSCAASGFTFSTYTMSWVRQTPEKRLEWVAYISNGGDRTYYPDTVKGRFTISRDDAKNTLFLQMSSLKSEDTAMYYCARHNITTVPFTMDYWGQGTSVTVSS
VL: DIVLTQSPASLAVSLGQRATISCRASESVDYYGTGLMQWYQQRPGQPPKLLIYGASNVGSGVPARFSGSGSGTDFSLNIHPVEGDDIAMYFCQQTRKVPSTFGGGTKLEIK
modifications: VH amino acid sequence; VL amino acid sequence
With B1, in data set [1], the half-time of elimination result is reported as “about 4.4 days”. Moreover, the “antibody distribution tumor vs kidney and liver” value in data set [2] (i.v. 10 mg/Kg, SPR) was “higher levels of antibody in the tumoral tissues respect to kidney and liver”. Besides, in data set [2] (tumor, i.v. 10 mg/kg), the “antibody levels in tumor tissues, PK profile” value is listed as “levels were measurable, with a bell-shaped PK profile”.
